Measurements taken from US20050227302A1, “Induction of apoptosis via ARTS-IAP complexes” (priority 2004, published 2005).

What was measured:
HL-60 cells = experiment: Caspase 3 activity assay in ARTS-transfected HL-60 cells; type: cell-based
Experimental: (§1) K562 and HL-60 cells were grown in RPMI 1640 medium. A549, COS-7 cells were grown in Dulbecco's modified Eagle medium (DMEM) with 4.5 grams/liter (g/L) D-glucose. All cells were grown at 37° C. in a 5% CO2 atmosphere. All media were supplemented with 10% fetal calf serum (FCS), penicillin (100 U/ml), streptomycin (100 micrograms (μg)/ml) and […] millimolar [mM]) (Biological Industries, Israel). pEF1-AU5 and pEF1-AU5-ARTS constructs were used for all ARTS transient transfection experiments. An AU5 tag was attached to the N' terminus of ARTS as described in ([…] et al, Nat Cell Biol 2: 915-921, 2000). The […] construct was generated by replacing three amino acids ([…]) at the GTP binding site, using site-directed mutagenesis (QuickChangeTM, Stratagene) with the primer: [NT] No: 1). COS-7, K562 and HL-60 cells were transiently transfected using electroporation (EasyjectTM plus-Equibio). A549 cells were transiently transfected using lipofectaminTM (Invitrogen) according to the manufacturer's protocol. The following apoptotic agents were used: TGF-beta (10 ng/ml) for 24 hours in medium containing 1% FCS; […] etoposide for 2 or 16 hours (Sigma); staurosporine (STS) ([…]) for 0-3 hours (Sigma); and arabinoside-c (ara-C, cytosar) (Pharmacia) at […] for 4 hours. In the case of transiently transfected cells, agents were added forty hours after transfections. […]

K562 cells = experiment: Caspase 3 activity assay in ARTS-transfected K562 cells; type: cell-based
Experimental: as §1

A549 cells = experiment: Caspase 3 activity assay in ARTS-transfected A549 cells; type: cell-based
Experimental: as §1

COS-7 cells [1] = experiment: Active caspase 3 immunofluorescence staining in ARTS-transfected COS-7 cells; type: cell-based, African Green Monkey
Experimental: as §1

XIAP [2] = molecular target: T1, XIAP (Homo sapiens, UniProt P98170); experiment: In vitro binding assay, recombinant ARTS with GST-XIAP; details: GST-XIAP and purified recombinant ARTS protein, GST alone as negative control
T1 construct: made in house; host or cells: bacteria (pGEX-XIAP plasmid obtained from Dr. Colin S. Duckett)
Experimental: Recombinant ARTS protein was generated with the TNT-Quick Coupled Transcription/Translation System™ (Promega) and incubated overnight at 4° C. with either recombinant GST-XIAP bound to glutathione beads, or with GST alone bound to glutathione beads, followed by Western blot with anti-ARTS or anti-GST antibody (Gibco).

COS-7 cells [3] = experiment: Apoptosis assays (TUNEL, anti-H2A.X) in COS-7 cells; type: cell-based, African Green Monkey; details: COS-7 cells stably transfected with an ARTS construct
Experimental: Apoptotic cells were detected using the anti-H2A.X antibody (Upstate; Paull, et al., 2000) or TUNEL. For TUNEL assays, COS-7 cells were transiently transfected with AU5-ARTS, AU5-ARTSΔC, AU5-ARTSmGTP and AU5-H5. Twenty-four hours after transfection, the cells were treated with staurosporine (STS) ([…]) for 1 or 3 hours, then fixed and permeabilized. Apoptosis levels were determined using the TUNEL. In situ™ cell death detection TMR kit (Roche) according to the manufacturer's protocol. All slides were coded and experiments were performed in a blind manner.
(§2) Stably transfected COS-7 pE-ARTS cells were generated using the pEF1-IRES vector (Hobbs S et al, Biochem Biophys Res Commun 252: 368-372, 1998). The construct contains an EF-1 promoter followed by a multi cloning site, an EMC (Encephalomyocarditis virus) internal ribosome entry sites (IRES), and a puromycin resistance gene. AU5-tagged ARTS was inserted into the XhoI site downstream of the EF-1 promoter. The construct was stably transfected into COS-7 cells. The cells were maintained in medium containing 4 μg/ml puromycin.

COS-7 cells [4] = experiment: Immunofluorescence of ARTS and XIAP localization in COS-7 cells; type: cell-based, African Green Monkey; details: apoptotic cells over-expressing ARTS versus not over-expressing
Experimental: Cells were fixed with 4% paraformaldehyde in PBS for 20 min at room temperature, washed with PBS, permeabilized with 0.5% Triton-X in PBS for 5 min, and incubated with primary antibodies for 2 hours at room temperature (rabbit polyclonal anti-ARTS (1:20,000; Sigma), monoclonal anti-ARTS, and/or monoclonal anti-XIAP (1:500; used in subsequent Examples). Cells were washed three times with PBS/0.1% Triton-X and incubated with FITC conjugated anti-mouse and Rhodamin^TX-conjugated anti-rabbit secondary antibodies (Jackson). Images were analyzed using a confocal laser microscope (Zeiss LSM 510). Mitochondria were visualized with MitoTracker® Red CMXRos (Molecular Probes/Invitrogen).
For caspase inhibition, we added […] of BOC-Asp(Ome)CH2F (Enzyme Systems Products) one hour prior to addition of the apoptotic agents.

XIAP [5] = experiment: XIAP protein levels by Western blot in COS-7 cells; type: cell-based, African Green Monkey
Experimental: Protein extracts were prepared with lysis buffer (150 mM NaCl, 50 mM Tris-HCl (pH 8), 1% NP-40, 0.5% deoxycholate acid) with protease inhibitors. Lysates containing equal amounts of total protein were pre-cleared overnight with 1 mg mouse IgG (Sigma) coupled with protein A/G-Sepharose mix (Amersham Biosciences) and the beads centrifuged. Supernatants were immuno-precipitated using 5 μl of anti-ARTS antibody for 4 h, anti-XIAP antibody, rabbit anti-myc antibody, or mouse IgG (negative control). Protein A/G Sepharose beads were added for 1 hour and washed four times with PBS. Antibodies against XIAP (as above), Myc (Santa Cruz), or anti-ARTS (NT) antibodies directed against the common N′ terminus of ARTS and H5 (ProSci Incorporated) were used for Western blot.
as §2
Cells were treated for 2 hours with […] of the proteasome inhibitor (MG132, Calbiochem) prior to induction of apoptotis.

CIAP = experiment: Interaction of ARTS with CIAP; type: binding

T1 sequence (P98170 whole entry): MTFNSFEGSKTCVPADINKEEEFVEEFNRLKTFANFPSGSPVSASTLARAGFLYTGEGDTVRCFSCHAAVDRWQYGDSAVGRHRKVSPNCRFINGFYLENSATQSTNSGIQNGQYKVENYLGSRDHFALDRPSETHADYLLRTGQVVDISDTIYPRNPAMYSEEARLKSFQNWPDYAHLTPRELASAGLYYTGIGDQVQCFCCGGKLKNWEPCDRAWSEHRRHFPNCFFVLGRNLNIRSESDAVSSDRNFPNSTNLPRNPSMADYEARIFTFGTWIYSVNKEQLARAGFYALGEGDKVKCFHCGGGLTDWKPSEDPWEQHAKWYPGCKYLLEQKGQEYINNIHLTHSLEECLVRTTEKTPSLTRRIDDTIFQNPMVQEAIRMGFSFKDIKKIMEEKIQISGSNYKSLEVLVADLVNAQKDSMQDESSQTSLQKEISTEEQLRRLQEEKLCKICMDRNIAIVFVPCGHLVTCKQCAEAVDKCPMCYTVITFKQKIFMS

B1: AU5-ARTS (other)
chain: MIKRFLEDTTDDGELSKFVKDFSGNASCHPPEAKTWASRPQVPEPRPQAPDLYDDDLEFRPPSRPQSSDNQQYFCAPAPLSPSARPRSPWGKLDPYDSSEDDKEYVGFATLPNQVHRKSVKKGFDFTLMVAGESGLGKSTLVNSLFLTDLYRDRKLLGAEERIMQTVEITKHAVDIEEKGVRLRLTIVDTPGFGDAVNNTECWKPVAEYIDQQFEQYFRDESGLNRKNIQDNRVHCCLYFISPFGHGYGPSLRLLAPPGAVKGTGQEHQGQGCH
notes: Expressed in transfected COS-7 cells and used as lysate or stained in cells; also called pEF1-AU5-ARTS; AU5-tagged ARTS; not shown: AU5 tag attached to the N' terminus of ARTS
Question: How did the caspase-3 activity (HL-60 cells; expression of ARTS in the absence of pro-apoptotic stimuli, HL-60 cells) turn out when B1 was run?
Answer: increased caspase-3 activity

Question: And the caspase-3 activity (HL-60 cells; over-expression of ARTS, HL-60 cells treated with ara-C)?
Answer: increased caspase-3 activity

Question: What about the caspase-3 activity (K562 cells; expression of ARTS in the absence of pro-apoptotic stimuli, K562 cells) of the same molecule?
Answer: little or no effect

Question: What about the caspase-3 activity (K562 cells; over-expression of ARTS, K562 cells treated with ara-C) of the same molecule?
Answer: increased caspase-3 activity

Question: And the caspase-3 activity (A549 cells; expression of ARTS in the absence of pro-apoptotic stimuli, A549 cells)?
Answer: little or no effect

Question: And the caspase-3 activity (A549 cells; over-expression of ARTS, A549 cells treated with TGF-β)?
Answer: increased caspase-3 activity

Question: What about the caspase-3 activity (COS-7 cells [1]; expression of ARTS in the absence of pro-apoptotic stimuli, COS-7 cells) of the same molecule?
Answer: little or no effect

Question: And the caspase-3 activity (COS-7 cells [1]; over-expression of ARTS, COS-7 cells treated with etoposide)?
Answer: increased caspase-3 activity

Question: And the “ARTS-XIAP binding, direct or not” value (XIAP [2])?
Answer: direct

Question: And the “apoptotic marker H2A.X” value (COS-7 cells [3])?
Answer: high levels of the apoptotic marker H2A.X

Question: What about the “XIAP staining in the nucleus” value (COS-7 cells [4]) of the same molecule?
Answer: significantly higher levels in the nucleus

Question: And the “amount of XIAP” value (XIAP [5]; COS-7 cells transiently transfected with pcDNA3-myc-XIAP and AU5-ARTS versus XIAP alone)?
Answer: significantly decreased

Question: What about the “levels of XIAP” value (XIAP [5]; COS-7 pE-ARTS cells stably expressing high levels of ARTS) of the same molecule?
Answer: significantly reduced levels of XIAP

Question: What about the XIAP protein levels (XIAP [5]; transiently transfected COS-7 cells treated with 1 mM staurosporin (STS) for 0, 2 or 5 hours) of the same molecule?
Answer: reduced XIAP protein levels

Question: What about the “interaction with CIAP” value (CIAP) of the same molecule?
Answer: interact with ARTS
